Legend:
Conditions in all cases: Homo sapiens
[1] = compound: CCCc1cc(OC(=O)c2c(O)cc(OC(=O)c3c(O)cc(O)cc3CCC)cc2CCC)cc(O)c1C(=O)O; experiment: Competitive inhibition of PTP1B (unknown origin) assessed as Km(app) for substrate at 0.1 uM using p-nitrophenyl phosphate substrate incubated for 30 mins by Lineweaver-Burk double reciprocal plot (reference value: 1.43 mM)
[2] = compound: CCCc1cc(OC(=O)c2c(O)cc(OC(=O)c3c(O)cc(O)cc3CCC)cc2CCC)cc(O)c1C(=O)O; experiment: Competitive inhibition of PTP1B (unknown origin) assessed as Km(app) for substrate at 0.4 uM using p-nitrophenyl phosphate substrate incubated for 30 mins by Lineweaver-Burk double reciprocal plot (reference value: 1.43 mM)
[3] = compound: CCCc1cc(OC(=O)c2c(O)cc(OC(=O)c3c(O)cc(O)cc3CCC)cc2CCC)cc(O)c1C(=O)O; experiment: Competitive inhibition of PTP1B (unknown origin) assessed as Km(app) for substrate at 0.25 uM using p-nitrophenyl phosphate substrate incubated for 30 mins by Lineweaver-Burk double reciprocal plot (reference value: 1.43 mM)

B1: Tyrosine-protein phosphatase non-receptor type 1 (Homo sapiens), P18031 (protein)
chain: MEMEKEFEQIDKSGSWAAIYQDIRHEASDFPCRVAKLPKNKNRNRYRDVSPFDHSRIKLHQEDNDYINASLIKMEEAQRSYILTQGPLPNTCGHFWEMVWEQKSRGVVMLNRVMEKGSLKCAQYWPQKEEKEMIFEDTNLKLTLISEDIKSYYTVRQLELENLTTQETREILHFHYTTWPDFGVPESPASFLNFLFKVRESGSLSPEHGPVVVHCSAGIGRSGTFCLADTCLLLMDKRKDPSSVDIKKVLLEMRKFRMGLIQTADQLRFSYLAVIEGAKFIMGDSSVQDQWKELSHEDLEPPPEHIPPPPRPPKRILEPHNGKCREFFPNHQWVKEETQEDKDCPIKEEKGSPLNAAPYGIESMSQDTEVRSRVVGGSLRGAQAASPAKGEPSLPEKDEDHALSYWKPFLVNMCVATVLTAGAYLCYRFLFNSNT
In the case of B1, the Km [1] is reported as 12 mM, the Km [2] is reported as 91 mM and the Km [3] is reported as 44 mM.
